T1: HPV33 E7 protein, recombinant (His-TEV-E7 fusion from E. coli) (Human Papilloma Virus type 33 (HPV33), UniProt P06429 1-97, CKII phosphorylation of the consensus site serines in the antigen preparation of Example 2; biotin on primary amines in the SPR assay)
T1 construct: mature; also called VE7_HPV33; not shown: N-terminal 6x Histidine tag and TEV cleavage site of the vector
T1 sequence: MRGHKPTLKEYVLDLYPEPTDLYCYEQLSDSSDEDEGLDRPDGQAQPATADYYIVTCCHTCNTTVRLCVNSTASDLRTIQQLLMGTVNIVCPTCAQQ

T2: HPV39 E7 protein, recombinant (His-TEV-E7 fusion from E. coli) (Human Papilloma Virus type 39 (HPV39), UniProt P24837 1-109, CKII phosphorylation of the consensus site serine in the antigen preparation of Example 2)
T2 construct: mature; also called VE7_HPV39; not shown: N-terminal 6x Histidine tag and TEV cleavage site of the vector
T2 sequence: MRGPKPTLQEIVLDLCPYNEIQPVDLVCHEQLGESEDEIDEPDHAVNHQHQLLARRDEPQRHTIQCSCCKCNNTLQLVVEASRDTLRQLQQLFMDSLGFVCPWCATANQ

T3: HPV51 E7 protein, recombinant (His-TEV-E7 fusion from E. coli) (Human Papilloma Virus type 51 (HPV51), UniProt P26558 1-101, CKII phosphorylation of the consensus site serines in the antigen preparation of Example 2)
T3 construct: mature; also called VE7_HPV51; not shown: N-terminal 6x Histidine tag and TEV cleavage site of the vector
T3 sequence: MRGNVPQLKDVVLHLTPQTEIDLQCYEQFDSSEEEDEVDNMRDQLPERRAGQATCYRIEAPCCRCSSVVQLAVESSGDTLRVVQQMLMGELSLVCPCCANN

T4: HPV56 E7 protein, recombinant (His-TEV-E7 fusion from E. coli) (Human Papilloma Virus type 56 (HPV56), UniProt P36833 1-105, CKII phosphorylation of the consensus site serines in the antigen preparation of Example 2)
T4 construct: mature; also called VE7_HPV56; not shown: N-terminal 6x Histidine tag and TEV cleavage site of the vector
T4 sequence: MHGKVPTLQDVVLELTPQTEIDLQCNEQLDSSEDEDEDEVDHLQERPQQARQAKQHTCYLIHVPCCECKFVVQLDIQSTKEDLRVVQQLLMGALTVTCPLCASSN

T5: HPV52 E7 protein, recombinant (His-TEV-E7 fusion from E. coli) (Human Papilloma Virus type 52 (HPV52), UniProt P36831 1-99, CKII phosphorylation of the consensus site serines in the antigen preparation of Example 2)
T5 construct: mature; also called VE7_HPV52; not shown: N-terminal 6x Histidine tag and TEV cleavage site of the vector
T5 sequence: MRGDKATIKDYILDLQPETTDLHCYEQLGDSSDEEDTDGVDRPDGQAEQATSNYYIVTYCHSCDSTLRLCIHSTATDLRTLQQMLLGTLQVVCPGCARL

T6: HPV18 E7 protein, recombinant (His-TEV-E7 fusion from E. coli) (Human Papilloma Virus type 18 (HPV18), UniProt P06788 1-105, CKII phosphorylation of the consensus site serines in the antigen preparation of Example 2; biotin on primary amines in the SPR assay)
T6 construct: mature; also called VE7_HPV18; not shown: N-terminal 6x Histidine tag and TEV cleavage site of the vector
T6 sequence: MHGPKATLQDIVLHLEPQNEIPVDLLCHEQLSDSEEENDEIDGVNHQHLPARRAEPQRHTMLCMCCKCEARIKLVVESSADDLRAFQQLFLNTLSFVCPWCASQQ

T7: HPV16 E7 protein, recombinant (His-TEV-E7 fusion from E. coli) (Human Papilloma Virus type 16 (HPV16), UniProt P03129 1-98, CKII phosphoserines at E7 S31 and S32 (chain 1 pos 49 and 50) in the antigen preparation of Example 2, written S; biotin on primary amines (Sulfo-NHS-LC Biotin) in the SPR assay.)
T7 construct: also called VE7_HPV16
T7 sequence: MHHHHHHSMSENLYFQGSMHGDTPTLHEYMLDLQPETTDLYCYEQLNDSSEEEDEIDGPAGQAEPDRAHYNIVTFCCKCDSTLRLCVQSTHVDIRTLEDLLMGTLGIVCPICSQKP

T8: HPV35 E7 protein, recombinant (His-TEV-E7 fusion from E. coli) (Human Papilloma Virus type 35 (HPV35), UniProt P27230 1-99, CKII phosphorylation of the consensus site serines in the antigen preparation of Example 2)
T8 construct: mature; also called VE7_HPV35; not shown: N-terminal 6x Histidine tag and TEV cleavage site of the vector
T8 sequence: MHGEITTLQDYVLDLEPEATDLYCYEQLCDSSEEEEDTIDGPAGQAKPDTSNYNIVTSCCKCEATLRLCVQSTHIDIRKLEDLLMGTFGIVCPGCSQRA


Tests used:
[1] = target: T1, HPV33 E7 protein, recombinant …; assay: ELISA and dot-blot, semiquantitative crossreactivity (+ weak interaction)
Protocol: (§1) Using ELISA and dot-blot techniques semiquantitative crossreactivities of the isolated mAbs was analysed. For this various mAbs were tested against the accepted high risk species.

[2] = target: T2, HPV39 E7 protein, recombinant …; assay: ELISA and dot-blot, semiquantitative crossreactivity (++ strong positive)
Protocol: as §1

[3] = target: T3, HPV51 E7 protein, recombinant …; assay: as above
Protocol: as §1

[4] = target: T4, HPV56 E7 protein, recombinant …; assay: as above
Protocol: as §1

[5] = target: T5, HPV52 E7 protein, recombinant …; assay: ELISA, HPV52E7 immobilised on polystyrene plates in 3-fold dilution steps, detected with ACAB452
[6] = target: T2, HPV39 E7 protein, recombinant …; assay: ELISA and dot-blot, semiquantitative crossreactivity
Protocol: as §1

[7] = target: T3, HPV51 E7 protein, recombinant …; assay: as above
Protocol: as §1

[8] = target: T6, HPV18 E7 protein, recombinant …; assay: ELISA and dot-blot, semiquantitative crossreactivity (+ weak interaction)
Protocol: as §1

[9] = target: T7, HPV16 E7 protein, recombinant …; assay: SPR (BIAcore X100), biotin-E7 on streptavidin SA chip, antibody as analyte, bivalent analyte fit, 25 C
[10] = target: T8, HPV35 E7 protein, recombinant …; assay: ELISA and dot-blot, semiquantitative crossreactivity (++ strong positive)
Protocol: as §1

| Binder | binding result [1] | binding result [2] | binding result [3] | binding result [4] | binding result [5] | binding result [6] | binding result [7] | binding result [8] | Kd [9] [nM] | kon [9] [M⁻¹ s⁻¹] | binding result [10] |
| --- | --- | --- | --- | --- | --- | --- | --- | --- | --- | --- | --- |
| ACAB452 (antibody, IgG1, V domains shown, also called HPV45E7 IgG1 antibody ACAB452) VH: DVQLQESGPGLVKPSQSLSLTCTVTGYSITSDYAWNWIRQFPGNKLEWVGYITYSGSTNYNPSLKSRISITRDTSKNQFFLQFNSVTSEDTATYFCARSWFAYWGQGTLVTVSS VL: DIVMTQTPLSLPVSLGDQASISCRSSQSLVHSNGNTYLHWFLQKPGQSPKLLIYKVSNRFSGVPDRFSGSGSGTDFTLKISRVEAEDLGVYFCLQSAHVPLTFGAGTKLELTR | binds | binds | binds | binds | no binding (tested: 800 nM immobilised antigen (per legend)) |  |  |  |  |  |  |
| ACAB161 (antibody, IgG2a, V domains shown, the printed entries run on into the first residues of the constant domains; also called HPV16E7 IgG2a antibody ACAB161) VH: EVMLVESGGGLVKPGGSLKLSCAASGFTFSRYTMSWVRQTPEKRLEWVATISSGGTNTNYTDSVKGRFTISRDNAKNNLYLQMSSLRSEDTALYYCTRGVRRGDGYAMDYWGQGTSVTVSS VL: DIVLTQAAPSVPVTPGESVSISCRSTKSLLHSNGNTYLYWFLQRPGQSPQALIYRTSNLASGVPDRFSGSGSGTAFTLRISRVEAEDVGVYYCMQHLEYPLTFGAGTKLELKR |  |  |  |  |  | no binding | no binding | binds | 3.38 | 58400 |  |
| ACAB164 (antibody, V domains shown, the printed entries run on into the first residues of the constant domains; also called HPV16E7 IgG2a antibody ACAB164) VH: EVQLQQSGLALVQPGASVKISCRTSGYTFTEYTLHWVKQSHGKSLEWIGGINPNNGSPKYNQKFKGKATLTVDKSSSTAYMELRSLTSEDSAVYYCARLDINSFFDYWGQGTTLTVSS VL: DVVMTQSPLSLPVSLGDQASISCRSSQSLVHSNGNTYLQWYLQKPGQSPKLLIYKLSNRFSGVPDRFSGSGSGTDFTLKISRVEAEDLGVYSCSQTTHVPPTFGGGTKLEIKR |  |  |  |  |  | no binding | no binding |  | 0.052 | 261000 | binds |

— US20150023979A1 (VALDOSPAN, published 2015)
